Earlier results, collected in article PMC4699190.

biological target: Carbonic anhydrase II (Homo sapiens) (UniProt P00918); assay: solid-phase binding assay

Kd [µM] | Substance
0.33 | NDCBE C-terminus (from UniProt Q2Y0W8)
0.597 | AE1 C-terminus (from UniProt P02730)
0.322 | NBCe1 C-terminus (from UniProt Q9Y6R1)
